# Results as given in US6630345B2 (New York University, dated 2003).
# Molecular target: recombinant full-length calcium-independent receptor of α-latrotoxin (CIRL) expressed in COS cells (rat)
# Sequence (O88917 other isoform, or with tags, fused parts or gaps limits assumed): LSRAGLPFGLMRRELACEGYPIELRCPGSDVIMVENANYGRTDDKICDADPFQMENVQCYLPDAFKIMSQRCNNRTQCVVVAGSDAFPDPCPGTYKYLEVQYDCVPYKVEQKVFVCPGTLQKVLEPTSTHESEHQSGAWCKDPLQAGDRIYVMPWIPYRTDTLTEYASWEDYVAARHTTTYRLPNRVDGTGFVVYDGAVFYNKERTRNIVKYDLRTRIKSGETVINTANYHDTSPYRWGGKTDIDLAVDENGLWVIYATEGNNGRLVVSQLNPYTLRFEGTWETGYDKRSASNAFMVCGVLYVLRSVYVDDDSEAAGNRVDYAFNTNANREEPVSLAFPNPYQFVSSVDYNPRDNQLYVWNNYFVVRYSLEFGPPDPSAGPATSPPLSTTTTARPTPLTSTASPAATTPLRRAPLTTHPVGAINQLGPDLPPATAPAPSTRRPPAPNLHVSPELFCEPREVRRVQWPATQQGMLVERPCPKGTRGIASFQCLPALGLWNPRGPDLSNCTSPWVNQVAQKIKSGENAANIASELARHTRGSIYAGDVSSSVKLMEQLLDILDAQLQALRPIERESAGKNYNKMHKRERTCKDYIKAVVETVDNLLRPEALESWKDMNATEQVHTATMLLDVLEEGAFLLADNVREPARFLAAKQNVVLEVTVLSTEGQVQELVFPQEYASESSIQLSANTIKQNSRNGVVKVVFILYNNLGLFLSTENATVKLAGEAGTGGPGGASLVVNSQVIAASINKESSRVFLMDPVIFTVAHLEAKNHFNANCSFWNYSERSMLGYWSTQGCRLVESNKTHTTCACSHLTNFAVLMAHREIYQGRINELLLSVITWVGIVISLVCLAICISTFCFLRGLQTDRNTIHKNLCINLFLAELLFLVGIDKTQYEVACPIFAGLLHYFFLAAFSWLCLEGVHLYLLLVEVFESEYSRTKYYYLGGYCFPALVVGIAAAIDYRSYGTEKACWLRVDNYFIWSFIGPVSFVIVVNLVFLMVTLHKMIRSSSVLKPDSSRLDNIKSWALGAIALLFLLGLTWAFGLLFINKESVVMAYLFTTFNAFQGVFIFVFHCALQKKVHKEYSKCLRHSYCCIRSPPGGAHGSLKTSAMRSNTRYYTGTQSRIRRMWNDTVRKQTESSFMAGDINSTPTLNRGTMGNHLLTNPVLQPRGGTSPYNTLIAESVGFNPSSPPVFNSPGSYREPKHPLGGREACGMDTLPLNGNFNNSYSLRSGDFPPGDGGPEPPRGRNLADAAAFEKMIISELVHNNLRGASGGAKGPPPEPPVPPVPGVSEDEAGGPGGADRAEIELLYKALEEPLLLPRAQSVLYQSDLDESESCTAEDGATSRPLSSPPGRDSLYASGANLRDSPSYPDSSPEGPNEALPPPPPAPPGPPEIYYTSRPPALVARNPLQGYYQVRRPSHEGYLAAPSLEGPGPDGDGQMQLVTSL
binder,measurement,value
"α-latrotoxin (ligand, radioactively labeled with 125I by chloramine T procedure in the binding and immunoprecipitation assays; coupled to Sepharose in the affinity experiments) EGEDLTLEEKAEICSELELQQKYVDIASNIIGDLSSLPIAGKIAGTIAAAAMTATHVASGRLDIEQTLLGCSDLPFDQIKEVLENRFNEIDRKLDSHSAALEEITKLVEKSISVVEKTRKQMNKRFDEVMKSIQDAKVSPIISKINNFARYFDTEKERIRGLKLNDYILKLEEPNGILLHFKESRTPTDDSLQAPLFSIIEEGYAVPKSIDDELAFKVLYALLYGTQTYVSVMFFLLEQYSFLANHYYEKGYLEKYDEYFNSLNNVFLDFKSSLVGTGTSNNEGLLDRVLQVLMTVKNSEFLGLEKNGVDEMLNEKINLFNKIKEEIEGKQKMTLSETPENFAQISFDKDITTPIGDWRDGREVRYAVQYASETLFSKISHWSDPVSVREKACPTLRMPVDQTRRNVLVFRKFDSSKPQLVGEITPYLSNFIDIDRDLYNAASNPDSAVGFKEFTKLNYDGANIRATFDHGRTVFHAAAKSGNDKIMFGLTFLAKSTELNQPDKKGYTPIHVAADSGNAGIVNLLIQRGVSINSKTYHFLQTPLHLAAQRGFVTTFQRLMESPEININERDKDGFTPLHYAIRGGERILEAFLNQISIDVNAKSNTGLTPFHLAIIKNDWPVASTLLGSKKVDINAVDENNITALHYAAILGYLETTKQLINLKEINANVVSSPGLLSALHYAILYKHDDVASFLMRSSNVNVNLKALGGITPLHLAVIQGRKQILSLMFDIGVNIEQKTDEKYTPLHLAAMSKYPELIQILLDQGSNFEAKTNSGATPLHLATFKGKSQAALILLNNEVNWRDTDENGQMPIHGAAMTGLLDVAQAIISIDATVVDIEDKNSDTPLNLAAQNSHIDVIKYFIDQGADINTRNKKGLAPLLAFSKKGNLDMVKYLFDKNANVYIADNDGMNFFYYAVQNGHLNIVKYAMSEKDKFEWSNTDNNRRDECPNEECAISHFAVCDAVQFDRIEIVKYFVGTLGNFAICGPLHQAARYGHLDIVKYLVEEEFLSVDGSKTDTPLCYASENGHFTVVQYLVSNGAKVNHDCGNGMTAIDKAITKNHLQVVQFLAANGVDFRRKNSRGTTPFLTAVAENALHIAEYLIREKRQDININEQNVDKDTALHLAVYYKNLQMIKLLIKYGIDVTIRNAYDKTALDIAIDAKFSNIVEYLKTKSGKFRR",Kd,0.16 nM
